IntAct's records for PubMed 20937695

B1: "Na(+)/H(+) exchange regulatory cofactor NHE-RF1" (Homo sapiens), O14745 (parent)
chain: MSADAAAGAPLPRLCCLEKGPNGYGFHLHGEKGKLGQYIRLVEPGSPAEKAGLLAGDRLVEVNGENVEKETHQQVVSRIRAALNAVRLLVVDPETDEQLQKLGVQVREELLRAQEAPGQAEPPAAAEVQGAGNENEPREADKSHPEQRELRPRLCTMKKGPSGYGFNLHSDKSKPGQFIRSVDPDSPAEASGLRAQDRIVEVNGVCMEGKQHGDVVSAIRAGGDETKLLVVDRETDEFFKKCRVIPSQEHLNGPLPVPFTNGEIQKENSREALAEAALESPRPALVRSASSDTSEELNSQDSPPKQDSTAPSSTSSSDPILDFNISLAMAKERAHQKRSSKRAPQMDWSKKNELFSNL
partner: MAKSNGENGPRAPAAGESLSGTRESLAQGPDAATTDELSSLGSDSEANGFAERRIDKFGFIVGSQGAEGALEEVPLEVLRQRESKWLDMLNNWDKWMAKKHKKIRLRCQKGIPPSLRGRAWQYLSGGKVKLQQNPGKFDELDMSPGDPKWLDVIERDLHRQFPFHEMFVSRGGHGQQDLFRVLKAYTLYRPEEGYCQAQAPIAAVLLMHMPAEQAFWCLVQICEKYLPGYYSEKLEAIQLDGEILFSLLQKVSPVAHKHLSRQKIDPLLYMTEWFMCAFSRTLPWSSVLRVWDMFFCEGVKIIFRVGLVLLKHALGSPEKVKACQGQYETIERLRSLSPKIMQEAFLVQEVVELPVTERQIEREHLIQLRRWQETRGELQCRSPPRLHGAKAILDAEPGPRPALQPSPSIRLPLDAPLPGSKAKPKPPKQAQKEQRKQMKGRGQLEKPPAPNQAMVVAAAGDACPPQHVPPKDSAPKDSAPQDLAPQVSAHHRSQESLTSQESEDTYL

Variants of: B1
Conditions: with tb10a_human TBC1D10A

effect of a mutation on the interaction	Variant
with no effect	MSADAAAGAPLPRLCCLEKGPNGYGFHLHGEKGKLGQYIRLVEPGSPAEKAGLLAGDRLVEVNGENVEKETHQQVVSRIRAALNAVRLLVVDPETDEQLQKLGVQVREELLRAQEAPGQAEPPAAAEVQGAGNENEPREADKSHPEQRELRPRLCTMKKGPAGYGFNLHSDKSKPGQFIRSVDPDSPAEASGLRAQDRIVEVNGVCMEGKQHGDVVSAIRAGGDETKLLVVDRETDEFFKKCRVIPSQEHLNGPLPVPFTNGEIQKENSREALAEAALESPRPALVRSASSDTSEELNSQDSPPKQDSTAPSSTSSSDPILDFNISLAMAKERAHQKRAAKRAPQMDWSKKNELFSNL [S162A;S339A;S340A]
with no effect	MSADAAAGAPLPRLCCLEKGPNGYGFHLHGEKGKLGQYIRLVEPGSPAEKAGLLAGDRLVEVNGENVEKETHQQVVSRIRAALNAVRLLVVDPETDEQLQKLGVQVREELLRAQEAPGQAEPPAAAEVQGAGNENEPREADKSHPEQRELRPRLCTMKKGPSGYGFNLHSDKSKPGQFIRSVDPDSPAEASGLRAQDRIVEVNGVCMEGKQHGDVVSAIRAGGDETKLLVVDRETDEFFKKCRVIPSQEHLNGPLPVPFTNGEIQKENSREALAEAALEAPRPALVRSASSDTSEELNSQDAPPKQDSTAPSSTSSSDPILDFNISLAMAKERAHQKRSSKRAPQMDWSKKNELFSNL [S280A;S302A]
with no effect	MSADAAAGAPLPRLCCLEKGPNGYGFHLHGEKGKLGQYIRLVEPGSPAEKAGLLAGDRLVEVNGENVEKETHQQVVSRIRAALNAVRLLVVDPETDEQLQKLGVQVREELLRAQEAPGQAEPPAAAEVQGAGNENEPREADKSHPEQRELRPRLCTMKKGPSGYGFNLHSDKSKPGQFIRSVDPDSPAEASGLRAQDRIVEVNGVCMEGKQHGDVVSAIRAGGDETKLLVVDRETDEFFKKCRVIPSQEHLNGPLPVPFTNGEIQKENSREALAEAALEDPRPALVRSASSDTSEELNSQDDPPKQDSTAPSSTSSSDPILDFNISLAMAKERAHQKRSSKRAPQMDWSKKNELFSNL [S280D;S302D]
